{
  "source": "patent US20100184651A1",
  "about": "“TARGETED FUSION PROTEINS FOR CANCER THERAPY” (Dabur Pharma Limited, priority 2005, published 2010)",
  "molecules": {"B1": {"name": "fusion protein: 71 amino acid recombinant polypeptide: VIP, cathepsin cleavable linker SLLIARRMPNFN, BH3 domain of BID, His tag (SEQ ID NO: 10) (protein)", "chain": "MHSDAVFTDNYTRLRKQMAVKKYLNSILNGSSLLIARRMPNFNEDIIRNIARHLAQVGDSMDRLEHHHHHH", "modifications": "This amino acid sequence was artificially generated using naturally occurring mature human VIP peptide produced in E.coli as fusion protein"}},
  "key": {"[1]": {"target": "T1, VPAC 1 receptors expressed on A549 cells (Homo sapiens, UniProt P32241)", "T1 construct": "the receptors were overexpressed in the A549 cell line; endogenous in cells; host or cells: A549 human lung carcinoma cells (acetone-fixed on slides)", "T1 sequence (P32241 31-457)": "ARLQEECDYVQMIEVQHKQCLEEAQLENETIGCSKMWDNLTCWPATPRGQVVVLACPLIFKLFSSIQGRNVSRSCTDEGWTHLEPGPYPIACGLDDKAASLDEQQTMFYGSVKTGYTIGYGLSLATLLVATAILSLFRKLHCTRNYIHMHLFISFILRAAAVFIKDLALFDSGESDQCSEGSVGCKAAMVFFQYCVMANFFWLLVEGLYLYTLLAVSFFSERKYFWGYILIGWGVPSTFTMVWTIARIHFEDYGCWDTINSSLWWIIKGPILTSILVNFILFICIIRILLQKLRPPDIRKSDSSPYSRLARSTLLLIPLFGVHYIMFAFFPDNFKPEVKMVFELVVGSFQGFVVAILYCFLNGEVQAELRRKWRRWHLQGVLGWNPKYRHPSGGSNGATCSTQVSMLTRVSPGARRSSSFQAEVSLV", "assay": "Immunocytochemical staining for cell surface receptors on A549 cells", "type": "binding", "description": "Similarly, when, the cells were treated with fusion protein and immuno-stained with anti-BID. […] A similar observation was made when A549 cells were pre-treated with VIP antagonist, VIP (10-28) followed by fusion protein and immunostaining with anti-BID (FIG. 15e).\nCultured (A549 human lung carcinoma) cells were detached with trypsin/EDTA and pelleted by low-speed centrifugation. The cells were resuspended in PBS. Cell suspensions were coated onto poly-L-lysine coated glass slides, dried and then fixed for 10 min in acetone at −20° C. After drying for 2 h, slides were rinsed in PBS and then treated for 5 min with water/H2O2 in order to block endogenous peroxidase. Slides were again rinsed again in PBS and treated with normal rabbit and goat serum to block background staining. Slides were then incubated with antagonist, VIP(10-28) and/or fusion protein for 1 hr each. Slides were again washed with PBS and incubated with rabbit-anti-BID antibody (dilution 1:1000) or goat anti-VPAC 1 antibody (dilution 1:1000) for 1 h. Slides were again washed in PBS and incubated with […] IgG peroxidase labelled antibodies for anti-BID and anti-VPAC 1 primary antibodies respectively, for 1 h followed by addition of the 3,3′-diaminobenzidine-tetrachloride (DAB) substrate and hydrogen peroxide in PBS. […]"}, "[2]": {"tested_on": "normal murine cell line, NIH3T3", "assay": "MTT cytotoxicity assay, NIH3T3", "type": "cell-based, mouse", "settings": "NIH3T3, 24 h treatment", "description": "Subsequently, cytotoxicity of this protein was determined on cell lines over expressing the VIP receptor like colon carcinoma cell line, HT29 and non small cell lung carcinoma cell line, A549 and compared with a normal murine cell line, NIH3T3, by a quantitative MTT assay. […] Different sensitivities of the two cell lines may be attributed to the differential expression of the VPAC1 receptors and the inherent sensitivity of the cell lines.\nCells were seeded in 96-well microplates, followed by the addition of various concentrations of the fusion protein. After a 24-hour incubation, the MTT assay was performed according to the method of Mosmann [Mosmann T, J Immunol. Methods, 1983, 55-63]. Serial dilutions of chemotherapeutic agents prepared by the Multiplication method were placed in a 96-well microplate. Since the cell lines employed in the present study had different proliferation rates, the number of cultured cells was adjusted to a density that allowed the untreated control cells to grow exponentially. […] Then 200 μl of DMSO was added, and the absorbance was determined at a wavelength of 540 nm using an ELISA reader. Results were expressed as the percent survival of the control experiments in which the cells were not exposed to any protein. […]"}, "[3]": {"target": "T2, recombinant human cathepsin D (Homo sapiens, UniProt P07339)", "T2 construct": "purchased R&D Systems, Abingdon, UK", "T2 sequence (P07339 65-412)": "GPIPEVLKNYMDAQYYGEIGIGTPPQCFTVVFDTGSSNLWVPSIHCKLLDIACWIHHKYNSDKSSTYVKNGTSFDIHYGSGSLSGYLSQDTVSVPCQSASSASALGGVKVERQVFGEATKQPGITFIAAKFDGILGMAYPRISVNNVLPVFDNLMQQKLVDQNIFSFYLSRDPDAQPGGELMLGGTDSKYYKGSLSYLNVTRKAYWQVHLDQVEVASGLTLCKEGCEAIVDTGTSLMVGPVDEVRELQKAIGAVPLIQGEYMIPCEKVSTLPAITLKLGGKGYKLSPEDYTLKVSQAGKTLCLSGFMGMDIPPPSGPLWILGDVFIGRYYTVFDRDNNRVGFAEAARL", "assay": "Cleavage at the linker site with recombinant human cathepsin D, followed by LC-MS", "type": "biochemical", "settings": "cathepsin D at a ratio of ~400:1 (w/w), pH 3.5, 37° C.", "description": "To evaluate the role of the linker used we carried out an in vitro digestion of the protein with cathepsin D at a ratio of ˜400:1 (w/w) and followed the cleavage by mass spectrometry as a function of time (FIG. 16). The first cleavage occurred at the linker by around 30 minutes of treatment with the protease, giving two peptides of 3914.4 Da (FIGS. 17a) and 4477 Da (FIG. 17b), which corresponded to M (1-34) L (expected mass 3915.5 Da) and L (35-71) H (expected mass 4475 Da) peptides respectively although the majority of the protein was still intact (FIG. 17c), which justified our design of the protein. Subsequently, the protein was cleaved at other sites as mapped by mass spectrometry till 2 H of digestion (FIGS. 18a-e, 19).\nLC/MS analyses were carried out using a Waters 2695 high-perfomance liquid chromatography (HPLC) system (Milford, USA) and Micromass Quattro Micro mass spectrometer (Micromass, UK) using a ZORBAX Eclipse XDB-C18 (4.6×150 mm, 5 μM) column. Mobile phase solvents were 0.1% HCOOH in Milli Q Water (A) and 0.1% HCOOH in Acetonitrile (B). Fusion protein was eluted using a linear gradient program: 0 min 100% A; 60 min 100% B; 60-75 min 100% A, at a constant flow rate of 1.2 mL min^−1, and a volume of 50 μl was directed to the detector of the mass spectrometer. […]"}, "A549 cells": {"tested_on": "A549 cells", "assay": "Mitochondrial membrane potential analysis with JC-1 dye", "type": "cell-based, human", "settings": "dose dependent", "description": "After having determined the role of the targeting VIP peptide and the cathepsin cleavable linker we investigated the role of the apoptotic BID peptide. In this regard, we monitored the mitochondrial membrane potential of the cells on treatment with fusion protein using JC-1 dye.\nAliquots of cell suspensions were incubated with 4 μM of JC-1, a specific MMP dependent fluorescence dye [Hortelano S. et al., FEBS Lett, 1997, 411: 77-82], for 30 min at 37° C. and washed once in PBS. Mitochondrial depolarization was qualitatively estimated by fluorescence microscopy with a long-pass filter. […] JC-1 forms aggregates in cells with a high red fluorescence (585 nm) indicating a normal MMP. MMP loss results in a reduction in red fluorescence with a concurrent gain in green fluorescence (530 nm) as the dye shifts from aggregates to monomeric state. Therefore, retention of the dye in the cells can be monitored through the increase in green fluorescence. The fluorescence was measures using Varioskan spectrofluorimeter (Thermo Electron Corporation, Waltham, Mass. USA) and the data was converted to density plots."}},
  "data": [
    {"molecule": "B1", "values": [
      {"measurement": "availability of VPAC-1 receptors to anti VPAC-1 after pre-treatment", "setting": "[1]; A549 cells pre-treated, then anti-VPAC-1 immunostaining", "value": "significant loss in the immunostained cell population"},
      {"measurement": "immunostaining with anti-BID after treatment of cells", "setting": "[1]; A549 cells treated with fusion protein, anti-BID", "value": "localization of the protein on the cells"},
      {"measurement": "IC50", "setting": "[2]", "value": "> 30", "unit": "µM"},
      {"measurement": "time of first cleavage at the linker", "setting": "[3]", "value": "around 30 minutes"},
      {"measurement": "effect on mitochondrial membrane potential", "setting": "A549 cells", "value": "decreasing the mitochondrial membrane potential"}
    ]}
  ]
}
